Test system: NC(=O)N[C@H]1NC(=O)NC1=O
Assay: purified protein
Details: free enzyme, 70 nM monomer, 20 mM potassium phosphate, pH 7.4, 37 °C, racemic allantoin added, table states (S)-allantoin, unclear whether concentration counts racemate or S form

puuE (allantoinase from Pseudomonas fluorescens) (Pseudomonas fluorescens Pf0-1)
Km: 1350 ± 430 µM
kcat: 102 s⁻¹
kcat/Km: 75200 M⁻¹ s⁻¹
